Laboratory results as given in publication PMC4565669, “Insulin and mTOR Pathway Regulate HDAC3-Mediated Deacetylation and Activation of PGK1” (PLoS Biology, 2015).

How the values were obtained:
PGK1 [1] = molecular target: PGK1 (UniProt P00558); test: co-IP of HA-HDAC3, PGK1 blot; settings: reference: wild type HA-HDAC3; sites S424
PGK1 [2] = molecular target: PGK1 (UniProt P00558); test: co-IP with HA beads, Flag blot; settings: reference: wild type HDAC3, insulin-treated; sites S424
GST-HDAC3 (recombinant) = molecular target: T1, GST-HDAC3 (recombinant) (UniProt O15379-1 1-428); test: pull-down; in vitro pull-down with recombinant GST-HDAC3 (30 ug) and His-PGK1 (10 ug) purified from E. coli; details in S1 Text; settings: both partners purified
T1 construct: source: E. coli, purified
T1 sequence (O15379 whole entry): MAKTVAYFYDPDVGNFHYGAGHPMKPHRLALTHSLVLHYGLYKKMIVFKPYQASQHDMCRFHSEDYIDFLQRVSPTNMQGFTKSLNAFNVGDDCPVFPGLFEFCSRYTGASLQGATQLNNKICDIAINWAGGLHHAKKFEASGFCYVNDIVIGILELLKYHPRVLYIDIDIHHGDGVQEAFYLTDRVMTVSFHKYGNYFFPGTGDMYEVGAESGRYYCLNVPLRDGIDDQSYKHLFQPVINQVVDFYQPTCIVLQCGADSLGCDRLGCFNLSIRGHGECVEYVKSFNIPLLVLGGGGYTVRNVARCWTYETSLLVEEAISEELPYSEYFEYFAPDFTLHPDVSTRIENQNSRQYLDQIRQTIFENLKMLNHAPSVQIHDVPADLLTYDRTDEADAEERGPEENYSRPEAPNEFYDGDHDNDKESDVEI

HDAC3 (from UniProt O15379) S424A
binding against the reference (PGK1 [1]): weaker

HDAC3 (from UniProt O15379) S424A, insulin-treated
binding against the reference (PGK1 [2]): weaker

B1: His-PGK1 (recombinant) (enzyme, human, UniProt P00558 1-417, looked up)
chain: MSLSNKLTLDKLDVKGKRVVMRVDFNVPMKNNQITNNQRIKAAVPSIKFCLDNGAKSVVLMSHLGRPDGVPMPDKYSLEPVAVELKSLLGKDVLFLKDCVGPEVEKACANPAAGSVILLENLRFHVEEEGKGKDASGNKVKAEPAKIEAFRASLSKLGDVYVNDAFGTAHRAHSSMVGVNLPQKAGGFLMKKELNYFAKALESPERPFLAILGGAKVADKIQLINNMLDKVNEMIIGGGMAFTFLKVLNNMEIGTSLFDEEGAKIVKDLMSKAEKNGVKITLPVDFVTADKFDENAKTGQATVASGIPAGWMGLDCGPESSKKYAEAVTRAKQIVWNGPVGVFEWEAFARGTKALMDEVVKATSRGCITIIGGGDTATCCAKWNTEDKVSHVSTGGGASLELLEGKVLPGVDALSNI
notes: Phosphoglycerate kinase 1 (PGK1), human, Gene ID 5230; unacetylated recombinant protein; also called His-tagged PGK1; source: E. coli, purified
binding result (GST-HDAC3 (recombinant)): binds
